Experiments:
dog serum albumin = biological target: T1, dog serum albumin (Canis lupus familiaris, UniProt P49822); assay: SPR pH 7.4
T1 chain: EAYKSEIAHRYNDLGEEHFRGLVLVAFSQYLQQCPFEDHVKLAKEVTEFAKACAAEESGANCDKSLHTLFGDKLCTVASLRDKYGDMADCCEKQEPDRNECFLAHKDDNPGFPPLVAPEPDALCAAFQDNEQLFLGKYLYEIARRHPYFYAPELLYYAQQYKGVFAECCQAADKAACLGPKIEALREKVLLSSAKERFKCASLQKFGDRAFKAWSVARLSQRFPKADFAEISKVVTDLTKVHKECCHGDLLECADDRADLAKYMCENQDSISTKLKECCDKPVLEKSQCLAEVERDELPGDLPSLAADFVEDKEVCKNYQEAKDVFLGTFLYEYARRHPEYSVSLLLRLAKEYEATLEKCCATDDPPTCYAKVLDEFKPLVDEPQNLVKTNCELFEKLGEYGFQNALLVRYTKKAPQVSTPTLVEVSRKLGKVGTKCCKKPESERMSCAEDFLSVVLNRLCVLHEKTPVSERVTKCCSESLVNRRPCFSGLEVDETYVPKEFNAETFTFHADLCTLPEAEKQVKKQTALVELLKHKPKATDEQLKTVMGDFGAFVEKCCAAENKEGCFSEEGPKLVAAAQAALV

bovine serum albumin = bovine serum albumin (Bos taurus, UniProt P02769); assay: SPR pH 7.4
pig serum albumin = biological target: T2, pig serum albumin (Sus scrofa, UniProt P08835); assay: SPR pH 7.4
T2 chain: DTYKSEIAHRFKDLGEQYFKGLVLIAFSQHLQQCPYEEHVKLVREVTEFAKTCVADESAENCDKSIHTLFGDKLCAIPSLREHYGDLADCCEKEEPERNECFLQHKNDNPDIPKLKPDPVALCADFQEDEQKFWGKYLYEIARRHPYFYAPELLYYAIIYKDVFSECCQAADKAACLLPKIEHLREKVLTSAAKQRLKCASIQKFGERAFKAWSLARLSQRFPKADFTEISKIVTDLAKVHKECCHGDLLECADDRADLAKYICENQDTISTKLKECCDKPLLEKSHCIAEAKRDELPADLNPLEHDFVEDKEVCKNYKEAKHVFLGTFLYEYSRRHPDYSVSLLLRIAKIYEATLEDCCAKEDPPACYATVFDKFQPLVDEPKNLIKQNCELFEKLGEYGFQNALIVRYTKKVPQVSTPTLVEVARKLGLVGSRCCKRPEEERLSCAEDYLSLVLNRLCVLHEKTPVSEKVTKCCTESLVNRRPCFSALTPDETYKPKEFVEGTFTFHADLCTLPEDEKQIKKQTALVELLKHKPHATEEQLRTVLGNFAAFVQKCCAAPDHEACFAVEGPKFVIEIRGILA

human serum albumin [1] = biological target: T3, human serum albumin (Homo sapiens, UniProt P02768); assay: SPR pH 7.4
rabbit serum albumin = biological target: T4, rabbit serum albumin (Oryctolagus cuniculus, UniProt P49065); assay: SPR pH 7.4
T4 chain: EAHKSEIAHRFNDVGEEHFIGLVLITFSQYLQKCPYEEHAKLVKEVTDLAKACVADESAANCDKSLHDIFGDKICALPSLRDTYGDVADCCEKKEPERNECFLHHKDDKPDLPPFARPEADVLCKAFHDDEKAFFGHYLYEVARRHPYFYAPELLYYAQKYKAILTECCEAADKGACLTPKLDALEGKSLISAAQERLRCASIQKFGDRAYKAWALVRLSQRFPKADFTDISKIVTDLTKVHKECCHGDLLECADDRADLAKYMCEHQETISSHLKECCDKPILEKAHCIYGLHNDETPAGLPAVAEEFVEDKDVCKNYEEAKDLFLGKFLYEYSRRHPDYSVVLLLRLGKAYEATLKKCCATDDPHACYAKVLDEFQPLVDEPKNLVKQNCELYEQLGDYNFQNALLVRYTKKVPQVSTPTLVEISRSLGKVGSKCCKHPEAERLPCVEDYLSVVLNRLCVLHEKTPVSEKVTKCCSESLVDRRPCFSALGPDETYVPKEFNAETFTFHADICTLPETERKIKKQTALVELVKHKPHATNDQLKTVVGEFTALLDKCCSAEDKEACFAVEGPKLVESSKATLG

human serum albumin [2] = biological target: T3, human serum albumin; assay: SPR pH 6.0
cynomolgus serum albumin = biological target: T5, cynomolgus serum albumin (Macaca fascicularis, UniProt A2V9Z4); assay: SPR pH 7.4
T5 chain: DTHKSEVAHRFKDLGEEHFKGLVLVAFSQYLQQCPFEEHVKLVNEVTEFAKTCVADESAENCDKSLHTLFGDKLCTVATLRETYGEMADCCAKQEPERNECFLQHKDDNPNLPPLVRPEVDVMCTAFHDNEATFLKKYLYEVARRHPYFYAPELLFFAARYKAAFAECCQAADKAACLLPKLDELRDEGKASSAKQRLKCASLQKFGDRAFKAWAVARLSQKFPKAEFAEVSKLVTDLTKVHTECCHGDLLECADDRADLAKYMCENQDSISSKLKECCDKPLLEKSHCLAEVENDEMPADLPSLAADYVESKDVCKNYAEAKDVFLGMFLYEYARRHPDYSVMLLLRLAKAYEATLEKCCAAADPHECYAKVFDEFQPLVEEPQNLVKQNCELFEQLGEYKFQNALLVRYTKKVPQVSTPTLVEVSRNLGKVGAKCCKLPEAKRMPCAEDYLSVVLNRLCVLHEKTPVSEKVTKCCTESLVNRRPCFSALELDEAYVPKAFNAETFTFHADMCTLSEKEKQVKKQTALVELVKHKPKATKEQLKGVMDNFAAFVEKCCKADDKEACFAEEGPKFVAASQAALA

rat serum albumin = biological target: T6, rat serum albumin (Rattus norvegicus, UniProt P02770); assay: SPR pH 7.4
T6 chain: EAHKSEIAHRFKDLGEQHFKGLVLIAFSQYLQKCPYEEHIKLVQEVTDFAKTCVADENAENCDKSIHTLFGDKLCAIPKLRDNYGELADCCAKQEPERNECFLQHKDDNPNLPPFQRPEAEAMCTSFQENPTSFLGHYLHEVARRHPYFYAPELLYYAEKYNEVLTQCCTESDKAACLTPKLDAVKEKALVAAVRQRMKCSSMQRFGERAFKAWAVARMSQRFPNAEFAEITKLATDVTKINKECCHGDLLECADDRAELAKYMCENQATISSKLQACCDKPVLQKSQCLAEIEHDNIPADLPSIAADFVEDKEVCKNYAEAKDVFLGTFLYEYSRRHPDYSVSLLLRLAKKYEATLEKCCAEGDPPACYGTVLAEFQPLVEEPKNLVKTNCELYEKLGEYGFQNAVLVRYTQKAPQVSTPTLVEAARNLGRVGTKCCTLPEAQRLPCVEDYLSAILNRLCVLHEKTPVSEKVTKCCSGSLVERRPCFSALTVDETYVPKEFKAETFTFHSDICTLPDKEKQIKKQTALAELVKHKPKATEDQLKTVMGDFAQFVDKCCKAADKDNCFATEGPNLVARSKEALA

mouse serum albumin = mouse serum albumin (Mus musculus, UniProt P07724); assay: SPR pH 7.4
sheep serum albumin = biological target: T7, sheep serum albumin (Ovis aries, UniProt P14639); assay: SPR pH 7.4
T7 chain: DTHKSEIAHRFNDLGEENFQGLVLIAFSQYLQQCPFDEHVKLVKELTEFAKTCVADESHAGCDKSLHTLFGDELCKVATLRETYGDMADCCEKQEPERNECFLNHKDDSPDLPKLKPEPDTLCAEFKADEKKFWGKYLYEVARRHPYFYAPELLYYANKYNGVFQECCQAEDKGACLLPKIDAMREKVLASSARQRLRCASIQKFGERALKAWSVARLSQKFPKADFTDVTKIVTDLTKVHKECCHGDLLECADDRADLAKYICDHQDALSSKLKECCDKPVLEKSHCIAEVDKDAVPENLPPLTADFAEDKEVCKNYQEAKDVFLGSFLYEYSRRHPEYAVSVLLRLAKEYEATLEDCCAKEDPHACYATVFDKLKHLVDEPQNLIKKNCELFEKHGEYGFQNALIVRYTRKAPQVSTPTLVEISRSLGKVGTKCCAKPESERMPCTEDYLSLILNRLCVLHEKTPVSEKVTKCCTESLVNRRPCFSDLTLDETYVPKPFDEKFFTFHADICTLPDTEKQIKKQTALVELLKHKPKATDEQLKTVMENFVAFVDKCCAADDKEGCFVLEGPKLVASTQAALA

human serum albumin [3] = biological target: T3, human serum albumin; assay: SPR pH 5.0
human serum albumin [4] = biological target: T3, human serum albumin; assay: SPR pH 7.4; remark: listed apart in the source

- Kd (dog serum albumin): 1200 pM
- binding result (bovine serum albumin): no binding
- Kd (pig serum albumin): 45000 pM
- koff (human serum albumin [1]): 0.0002 s⁻¹
- binding result (rabbit serum albumin): no binding
- koff (human serum albumin [2]): 0.00032 s⁻¹
- Kd (cynomolgus serum albumin): 450 pM
- Kd (rat serum albumin): 67 pM
- Kd (mouse serum albumin): 270 pM
- binding result (sheep serum albumin): no binding
- koff (human serum albumin [3]): 0.00051 s⁻¹
- Kd (human serum albumin [4]): 440 pM
B1: SEQ ID NO:19 serum albumin binder (T023500029) (antibody, V domains shown)
VH: EVQLVESGGGVVQPGDSLRLSCAASGGTFSTYVMGWFRQAPGKEREFVSAISQNSIHTYYANSVKGRFTISRDNSKNTVYLQLNSLRPEDTALYYCAASRFTSWYTADYEYDYWGQGTLVTVSS

— patent publication EP4442707
